Measurements: patent US20140274782A1, “AFFINITY REAGENTS AND METHODS FOR DETECTION, PURIFICATION, AND PROTEOMIC ANALYSIS OF METHYLATED PROTEINS” (The Board of Trustees of the Leland Stanford Junior …, priority 2013, published 2014)

T1: G9a and GLP (Homo sapiens, UniProt Q96KQ7+Q9H9B1)
T1 sequence (Q96KQ7 2-1210 limits assumed): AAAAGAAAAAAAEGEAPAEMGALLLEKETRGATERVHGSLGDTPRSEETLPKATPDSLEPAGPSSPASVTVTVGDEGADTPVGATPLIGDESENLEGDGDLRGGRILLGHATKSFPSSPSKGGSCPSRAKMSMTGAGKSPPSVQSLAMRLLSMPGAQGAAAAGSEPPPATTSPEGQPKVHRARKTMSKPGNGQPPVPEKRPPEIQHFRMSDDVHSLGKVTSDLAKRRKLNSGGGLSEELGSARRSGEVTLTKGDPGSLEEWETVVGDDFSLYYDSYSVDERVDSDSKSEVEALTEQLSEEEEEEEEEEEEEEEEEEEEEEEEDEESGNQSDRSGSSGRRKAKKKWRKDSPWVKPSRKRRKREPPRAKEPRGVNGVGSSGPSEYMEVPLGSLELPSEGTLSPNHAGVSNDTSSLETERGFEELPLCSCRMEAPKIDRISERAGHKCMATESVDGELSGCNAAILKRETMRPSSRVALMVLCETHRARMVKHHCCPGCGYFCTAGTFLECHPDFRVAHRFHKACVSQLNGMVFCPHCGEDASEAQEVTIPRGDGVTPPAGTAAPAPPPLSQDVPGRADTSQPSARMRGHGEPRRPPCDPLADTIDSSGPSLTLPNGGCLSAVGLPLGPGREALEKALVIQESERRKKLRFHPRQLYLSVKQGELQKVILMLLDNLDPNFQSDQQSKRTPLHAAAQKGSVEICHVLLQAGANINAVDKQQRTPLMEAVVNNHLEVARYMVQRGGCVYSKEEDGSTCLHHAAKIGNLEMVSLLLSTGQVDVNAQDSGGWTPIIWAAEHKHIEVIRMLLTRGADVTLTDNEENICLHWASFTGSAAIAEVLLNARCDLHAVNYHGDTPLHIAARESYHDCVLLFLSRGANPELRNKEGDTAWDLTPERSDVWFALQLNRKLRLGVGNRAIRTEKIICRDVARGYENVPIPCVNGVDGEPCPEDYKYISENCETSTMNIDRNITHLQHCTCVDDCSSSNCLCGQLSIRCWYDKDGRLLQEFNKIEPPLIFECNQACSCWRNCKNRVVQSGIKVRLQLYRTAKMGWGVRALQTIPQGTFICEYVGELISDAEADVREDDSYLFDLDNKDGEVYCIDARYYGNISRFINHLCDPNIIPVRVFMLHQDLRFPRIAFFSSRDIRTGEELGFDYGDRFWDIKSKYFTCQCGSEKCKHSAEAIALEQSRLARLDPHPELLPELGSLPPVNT
T1 sequence (Q9H9B1 2-1298 limits assumed): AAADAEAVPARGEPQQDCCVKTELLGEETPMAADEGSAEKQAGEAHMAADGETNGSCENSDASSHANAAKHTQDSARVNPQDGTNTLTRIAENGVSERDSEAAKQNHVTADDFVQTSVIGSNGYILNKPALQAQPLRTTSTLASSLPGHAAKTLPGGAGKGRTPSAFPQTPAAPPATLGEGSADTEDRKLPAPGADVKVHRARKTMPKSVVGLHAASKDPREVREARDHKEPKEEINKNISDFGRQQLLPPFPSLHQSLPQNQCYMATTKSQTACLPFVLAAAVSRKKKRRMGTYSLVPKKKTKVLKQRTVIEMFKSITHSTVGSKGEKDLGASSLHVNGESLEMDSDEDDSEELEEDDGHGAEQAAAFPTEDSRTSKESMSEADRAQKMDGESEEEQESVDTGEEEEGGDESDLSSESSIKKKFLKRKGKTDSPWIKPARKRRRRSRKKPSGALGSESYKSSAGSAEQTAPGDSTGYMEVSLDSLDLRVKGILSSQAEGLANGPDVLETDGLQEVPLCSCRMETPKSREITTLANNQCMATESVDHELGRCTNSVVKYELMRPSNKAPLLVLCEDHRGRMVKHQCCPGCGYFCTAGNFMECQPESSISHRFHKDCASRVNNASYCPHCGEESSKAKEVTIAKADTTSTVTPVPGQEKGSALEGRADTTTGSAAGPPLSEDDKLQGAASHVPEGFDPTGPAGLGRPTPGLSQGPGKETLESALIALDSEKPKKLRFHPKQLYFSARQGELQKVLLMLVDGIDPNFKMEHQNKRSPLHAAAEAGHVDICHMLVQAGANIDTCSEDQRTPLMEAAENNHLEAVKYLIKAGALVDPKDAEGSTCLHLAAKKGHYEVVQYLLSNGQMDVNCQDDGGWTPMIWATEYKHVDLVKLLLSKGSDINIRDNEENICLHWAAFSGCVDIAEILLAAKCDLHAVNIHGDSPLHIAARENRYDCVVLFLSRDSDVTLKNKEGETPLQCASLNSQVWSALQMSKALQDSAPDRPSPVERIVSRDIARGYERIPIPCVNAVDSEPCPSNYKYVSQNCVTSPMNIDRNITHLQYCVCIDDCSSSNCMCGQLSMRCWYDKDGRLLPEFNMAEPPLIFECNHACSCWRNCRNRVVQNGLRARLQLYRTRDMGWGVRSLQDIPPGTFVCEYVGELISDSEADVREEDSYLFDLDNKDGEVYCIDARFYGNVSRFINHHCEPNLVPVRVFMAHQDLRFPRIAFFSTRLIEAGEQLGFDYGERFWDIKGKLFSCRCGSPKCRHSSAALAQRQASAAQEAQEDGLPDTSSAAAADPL


Tests used:
G9a and GLP = biological target: T1, G9a and GLP; assay: Triple SILAC pull-down after UNC0638 treatment of 293T cells, DMSO/UNC0638 ratio of protein captured by 3×MBT; format: cell-based; set-up: cells were treated for 24 hours with UNC0638 at 2.5 μM or DMSO vehicle control; endogenous in cells; host or cells: HEK 293T; conditions: for Relative to UNC0638 UNC Heavy: UNC0638 in heavy SILAC media; for Relative to UNC0638 UNC Light: UNC0638 in light SILAC media; for Relative to UNC0638 Average: average of UNC Light and UNC Heavy experiments; for Candidate G9a/GLP target: reduced association with 3xMBT after UNC0638 treatment;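 as to all read-outs here: mass spectrometry (Q-Exactive) SILAC quantitation, DMSO/UNC0638 ratio computed after subtracting 3×MBTD355N mutant pull-down background, only proteins with at least twofold 3×MBT over mutant signal considered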
3×MBT domain of L3MBTL1 = assay: Triple SILAC pull-down, 3xMBT/3xMBTD355N ratio (cytoplasmic, nuclear and chromatin fractions of 293T cells); format: binding, human; conditions: for 3xMBT/D355N UNC Heavy: experiment with UNC0638 in heavy SILAC media; for 3xMBT/D355N UNC Light: experiment with UNC0638 in light SILAC media;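 as to all read-outs here: proteins quantified with MaxQuant, requiring at least two unique peptides and quantification in both label directions, normalized to the mean of proteins from a digested loading control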
[1] = SILAC ratio DMSO/UNC0638 of protein pulled down with 3xMBT
[2] = SILAC ratio, pull-down 3xMBT vs 3xMBTD355N
[3] = SILAC ratio DMSO relative to UNC0638, pull-down with 3xMBT, all values in log base 2
[4] = SILAC ratio 3xMBT vs 3xMBTD355N pull-down, 293T cells, all values in log base 2

Row | Relative to UNC0638 UNC Heavy (G9a and GLP; [1]) [log base 2] | Relative to UNC0638 UNC Light (G9a and GLP; [1]) [log base 2] | Relative to UNC0638 Average (G9a and GLP) [log base 2] | Candidate G9a/GLP target (G9a and GLP) | Relative to UNC0638 UNC Heavy (G9a and GLP; [3]) [log base 2] | Relative to UNC0638 UNC Light (G9a and GLP; [3]) [log base 2] | Relative to UNC0638 Average (G9a and GLP; all values in log base 2) [log base 2] | Molecule | 3xMBT/D355N UNC Heavy (3×MBT domain of L3MBTL1; [2]) [log base 2] | 3xMBT/D355N UNC Light (3×MBT domain of L3MBTL1; [2]) [log base 2] | 3xMBT/D355N UNC Heavy (3×MBT domain of L3MBTL1; [4]) [log base 2] | 3xMBT/D355N UNC Light (3×MBT domain of L3MBTL1; [4]) [log base 2]
1 | 0.57 | 0.28 | 0.43 | ✓ | – | – | – | NUDT16L1 (protein, UniProt Q9BRJ7 1-211, looked up) Tudor-interacting repair …: MSTAAVPELKQISRVEAMRLGPGWSHSCHAMLYAANPGQLFGRIPMRFSVLMQMRFDGLLGFPGGFVDRRFWSLEDGLNRVLGLGLGCLRLTEADYLSSHLTEGPHRVVAHLYARQLTLEQLHAVEISAVHSRDHGLEVLGLVRVPLYTQKDRVGGFPNFLSNAFVSTAKCQLLFALKVLNMMPEEKLVEALAAATEKQKKALEKLLPASS | 1.84 | 1.77 | – | –
2 | 0.72 | −0.12 | 0.30 | – | – | – | – | NTHL1 (protein, UniProt P78549 23-304, looked up) Endonuclease III-like protein …: GCREEPGPLRRREAAAEARKSHSPVKRPRKAQRLRVAYEGSDSEKGEGAEPLKVPVWEPQDWQQQLVNIRAMRNKKDAPVDHLGTEHCYDSSAPPKVRRYQVLLSLMLSSQTKDQVTAGAMQRLRARGLTVDSILQTDDATLGKLIYPVGFWRSKVKYIKQTSAILQQHYGGDIPASVAELVALPGVGPKMAHLAMAVAWGTVSGIAVDTHVHRIANRLRWTKKATKSPEETRAALEEWLPRELWHEINGLLVGFGQQTCLPVHPRCHACLNQALCPAAQGL | 0.48 | 1.60 | – | –
3 | 0.29 | 0.54 | 0.42 | ✓ | – | – | – | DDX23 (protein, UniProt Q9BUQ8 1-820, looked up) Probable ATP-dependent RNA …: MAGELADKKDRDASPSKEERKRSRTPDRERDRDRDRKSSPSKDRKRHRSRDRRRGGSRSRSRSRSKSAERERRHKERERDKERDRNKKDRDRDKDGHRRDKDRKRSSLSPGRGKDFKSRKDRDSKKDEEDEHGDKKPKAQPLSLEELLAKKKAEEEAEAKPKFLSKAEREAEALKRRQQEVEERQRMLEEERKKRKQFQDLGRKMLEDPQERERRERRERMERETNGNEDEEGRQKIREEKDKSKELHAIKERYLGGIKKRRRTRHLNDRKFVFEWDASEDTSIDYNPLYKERHQVQLLGRGFIAGIDLKQQKREQSRFYGDLMEKRRTLEEKEQEEARLRKLRKKEAKQRWDDRHWSQKKLDEMTDRDWRIFREDYSITTKGGKIPNPIRSWKDSSLPPHILEVIDKCGYKEPTPIQRQAIPIGLQNRDIIGVAETGSGKTAAFLIPLLVWITTLPKIDRIEESDQGPYAIILAPTRELAQQIEEETIKFGKPLGIRTVAVIGGISREDQGFRLRMGCEIVIATPGRLIDVLENRYLVLSRCTYVVLDEADRMIDMGFEPDVQKILEHMPVSNQKPDTDEAEDPEKMLANFESGKHKYRQTVMFTATMPPAVERLARSYLRRPAVVYIGSAGKPHERVEQKVFLMSESEKRKKLLAILEQGFDPPIIIFVNQKKGCDVLAKSLEKMGYNACTLHGGKGQEQREFALSNLKAGAKDILVATDVAGRGIDIQDVSMVVNYDMAKNIEDYIHRIGRTGRAGKSGVAITFLTKEDSAVFYELKQAILESPVSSCPPELANHPDAQHKPGTILTKKRREETIFA | 2.24 | 2.27 | – | –
4 | – | – | – | – | −3.85 | 1.78 | −1.03 | CAND1 (protein, UniProt Q86VP6 2-1230, looked up) Cullin-associated …: ASASYHISNLLEKMTSSDKDFRFMATNDLMTELQKDSIKLDDDSERKVVKMILKLLEDKNGEVQNLAVKCLGPLVSKVKEYQVETIVDTLCTNMLSDKEQLRDISSIGLKTVIGELPPASSGSALAANVCKKITGRLTSAIAKQEDVSVQLEALDIMADMLSRQGGLLVNFHPSILTCLLPQLTSPRLAVRKRTIIALGHLVMSCGNIVFVDLIEHLLSELSKNDSMSTTRTYIQCIAAISRQAGHRIGEYLEKIIPLVVKFCNVDDDELREYCIQAFESFVRRCPKEVYPHVSTIINICLKYLTYDPNYNYDDEDEDENAMDADGGDDDDQGSDDEYSDDDDMSWKVRRAAAKCLDAVVSTRHEMLPEFYKTVSPALISRFKEREENVKADVFHAYLSLLKQTRPVQSWLCDPDAMEQGETPLTMLQSQVPNIVKALHKQMKEKSVKTRQCCFNMLTELVNVLPGALTQHIPVLVPGIIFSLNDKSSSSNLKIDALSCLYVILCNHSPQVFHPHVQALVPPVVACVGDPFYKITSEALLVTQQLVKVIRPLDQPSSFDATPYIKDLFTCTIKRLKAADIDQEVKERAISCMGQIICNLGDNLGSDLPNTLQIFLERLKNEITRLTTVKALTLIAGSPLKIDLRPVLGEGVPILASFLRKNQRALKLGTLSALDILIKNYSDSLTAAMIDAVLDELPPLISESDMHVSQMAISFLTTLAKVYPSSLSKISGSILNELIGLVRSPLLQGGALSAMLDFFQALVVTGTNNLGYMDLLRMLTGPVYSQSTALTHKQSYYSIAKCVAALTRACPKEGPAVVGQFIQDVKNSRSTDSIRLLALLSLGEVGHHIDLSGQLELKSVILEAFSSPSEEVKSAASYALGSISVGNLPEYLPFVLQEITSQPKRQYLLLHSLKEIISSASVVGLKPYVENIWALLLKHCECAEEGTRNVVAECLGKLTLIDPETLLPRLKGYLISGSSYARSSVVTAVKFTISDHPQPIDPLLKNCIGDFLKTLEDPDLNVRRVALVTFNSAAHNKPSLIRDLLDTVLPHLYNETKVRKELIREVEMGPFKHTVDDGLDIRKAAFECMYTLLDSCLDRLDIFEFLNHVEDGLKDHYDIKMLTFLMLVRLSTLCPSAVLQRLDRLVEPLRATCTTKVKANSVKQEFEKQDELKRSAMRAVAALLTIPEAEKSPLMSEFQSQISSNPELAAIFESIQKDSSSTNLESMDTS | – | – | 3.61 | 3.86
